First the molecules themselves.
B1: Compound 67 (peptide)
peptide: Ac-SEFCI[Trp(1-Me)]QDWGEHRCTGAES-NH2
modifications: disulfide 4-14
SMILES: CC[C@H](C)[C@@H]1NC(=O)[C@@H](NC(=O)[C@H](Cc2ccccc2)NC(=O)[C@H](CCC(=O)O)NC(=O)[C@H](CO)NC(C)=O)CSSC[C@@H](C(=O)N[C@H](C(=O)NCC(=O)N[C@@H](C)C(=O)N[C@@H](CCC(=O)O)C(=O)N[C@@H](CO)C(N)=O)[C@@H](C)O)NC(=O)[C@H](CCCNC(=N)N)NC(=O)[C@H](Cc2c[nH]cn2)NC(=O)[C@H](CCC(=O)O)NC(=O)CNC(=O)[C@H](Cc2c[nH]c3ccccc23)NC(=O)[C@H](CC(=O)O)NC(=O)[C@H](CCC(N)=O)NC(=O)[C@H](Cc2cn(C)c3ccccc23)NC1=O
B2: Compound 50 (peptide)
peptide: Ac-EGSAICI[2Nal]QDWGEHRC[Sar]E-NH2
modifications: disulfide 6-16
SMILES: CC[C@H](C)[C@H](NC(=O)[C@H](C)NC(=O)[C@H](CO)NC(=O)CNC(=O)[C@H](CCC(=O)O)NC(C)=O)C(=O)N[C@H]1CSSC[C@@H](C(=O)N(C)CC(=O)N[C@@H](CCC(=O)O)C(N)=O)NC(=O)[C@H](CCCNC(=N)N)NC(=O)[C@H](Cc2c[nH]cn2)NC(=O)[C@H](CCC(=O)O)NC(=O)CNC(=O)[C@H](Cc2c[nH]c3ccccc23)NC(=O)[C@H](CC(=O)O)NC(=O)[C@H](CCC(N)=O)NC(=O)[C@H](Cc2ccc3ccccc3c2)NC(=O)[C@H]([C@@H](C)CC)NC1=O
B3: Compound 73 (peptide)
peptide: H-[dY]FCI[Trp(1-Me)]QDW[Sar]EHRCTGAES-NH2
modifications: disulfide 3-13
SMILES: CC[C@H](C)[C@@H]1NC(=O)[C@@H](NC(=O)[C@H](Cc2ccccc2)NC(=O)[C@H](N)Cc2ccc(O)cc2)CSSC[C@@H](C(=O)N[C@H](C(=O)NCC(=O)N[C@@H](C)C(=O)N[C@@H](CCC(=O)O)C(=O)N[C@@H](CO)C(N)=O)[C@@H](C)O)NC(=O)[C@H](CCCNC(=N)N)NC(=O)[C@H](Cc2c[nH]cn2)NC(=O)[C@H](CCC(=O)O)NC(=O)CN(C)C(=O)[C@H](Cc2c[nH]c3ccccc23)NC(=O)[C@H](CC(=O)O)NC(=O)[C@H](CCC(N)=O)NC(=O)[C@H](Cc2cn(C)c3ccccc23)NC1=O
B4: Compound 63 (peptide)
peptide: Ac-FCI[1Nal]QDWGEHRCTGAES-NH2
modifications: disulfide 2-12
SMILES: CC[C@H](C)[C@@H]1NC(=O)[C@@H](NC(=O)[C@H](Cc2ccccc2)NC(C)=O)CSSC[C@@H](C(=O)N[C@H](C(=O)NCC(=O)N[C@@H](C)C(=O)N[C@@H](CCC(=O)O)C(=O)N[C@@H](CO)C(N)=O)[C@@H](C)O)NC(=O)[C@H](CCCNC(=N)N)NC(=O)[C@H](Cc2c[nH]cn2)NC(=O)[C@H](CCC(=O)O)NC(=O)CNC(=O)[C@H](Cc2c[nH]c3ccccc23)NC(=O)[C@H](CC(=O)O)NC(=O)[C@H](CCC(N)=O)NC(=O)[C@H](Cc2cccc3ccccc23)NC1=O
B5: Compound 81 (peptide)
peptide: Ac-SE[Sar]CI[Trp(1-Me)]QDWGEHRC[Sar]EA-NH2
modifications: disulfide 4-14
SMILES: CC[C@H](C)[C@@H]1NC(=O)[C@@H](NC(=O)CN(C)C(=O)[C@H](CCC(=O)O)NC(=O)[C@H](CO)NC(C)=O)CSSC[C@@H](C(=O)N(C)CC(=O)N[C@@H](CCC(=O)O)C(=O)N[C@@H](C)C(N)=O)NC(=O)[C@H](CCCNC(=N)N)NC(=O)[C@H](Cc2c[nH]cn2)NC(=O)[C@H](CCC(=O)O)NC(=O)CNC(=O)[C@H](Cc2c[nH]c3ccccc23)NC(=O)[C@H](CC(=O)O)NC(=O)[C@H](CCC(N)=O)NC(=O)[C@H](Cc2cn(C)c3ccccc23)NC1=O
B6: Compound 75 (peptide)
peptide: Ac-SEFCI[Trp(1-Me)]QDWGEHRC[Sar]EA-NH2
modifications: disulfide 4-14
SMILES: CC[C@H](C)[C@@H]1NC(=O)[C@@H](NC(=O)[C@H](Cc2ccccc2)NC(=O)[C@H](CCC(=O)O)NC(=O)[C@H](CO)NC(C)=O)CSSC[C@@H](C(=O)N(C)CC(=O)N[C@@H](CCC(=O)O)C(=O)N[C@@H](C)C(N)=O)NC(=O)[C@H](CCCNC(=N)N)NC(=O)[C@H](Cc2c[nH]cn2)NC(=O)[C@H](CCC(=O)O)NC(=O)CNC(=O)[C@H](Cc2c[nH]c3ccccc23)NC(=O)[C@H](CC(=O)O)NC(=O)[C@H](CCC(N)=O)NC(=O)[C@H](Cc2cn(C)c3ccccc23)NC1=O
B7: Compound 86 (peptide)
peptide: Ac-SEFCI[Trp(1-Me)]QDWGEHKC[Sar]EA-NH2
modifications: disulfide 4-14
SMILES: CC[C@H](C)[C@@H]1NC(=O)[C@@H](NC(=O)[C@H](Cc2ccccc2)NC(=O)[C@H](CCC(=O)O)NC(=O)[C@H](CO)NC(C)=O)CSSC[C@@H](C(=O)N(C)CC(=O)N[C@@H](CCC(=O)O)C(=O)N[C@@H](C)C(N)=O)NC(=O)[C@H](CCCCN)NC(=O)[C@H](Cc2c[nH]cn2)NC(=O)[C@H](CCC(=O)O)NC(=O)CNC(=O)[C@H](Cc2c[nH]c3ccccc23)NC(=O)[C@H](CC(=O)O)NC(=O)[C@H](CCC(N)=O)NC(=O)[C@H](Cc2cn(C)c3ccccc23)NC1=O
B8: Compound 82 (peptide)
peptide: Ac-SE[Sar]CI[Trp(1-Me)]QDWGEHRCTEA-NH2
modifications: disulfide 4-14
SMILES: CC[C@H](C)[C@@H]1NC(=O)[C@@H](NC(=O)CN(C)C(=O)[C@H](CCC(=O)O)NC(=O)[C@H](CO)NC(C)=O)CSSC[C@@H](C(=O)N[C@H](C(=O)N[C@@H](CCC(=O)O)C(=O)N[C@@H](C)C(N)=O)[C@@H](C)O)NC(=O)[C@H](CCCNC(=N)N)NC(=O)[C@H](Cc2c[nH]cn2)NC(=O)[C@H](CCC(=O)O)NC(=O)CNC(=O)[C@H](Cc2c[nH]c3ccccc23)NC(=O)[C@H](CC(=O)O)NC(=O)[C@H](CCC(N)=O)NC(=O)[C@H](Cc2cn(C)c3ccccc23)NC1=O
B9: Compound 49 (peptide)
peptide: Ac-EGSAICI[Trp(1-Me)]QDWGEHRC[Sar]E-NH2
modifications: disulfide 6-16
SMILES: CC[C@H](C)[C@H](NC(=O)[C@H](C)NC(=O)[C@H](CO)NC(=O)CNC(=O)[C@H](CCC(=O)O)NC(C)=O)C(=O)N[C@H]1CSSC[C@@H](C(=O)N(C)CC(=O)N[C@@H](CCC(=O)O)C(N)=O)NC(=O)[C@H](CCCNC(=N)N)NC(=O)[C@H](Cc2c[nH]cn2)NC(=O)[C@H](CCC(=O)O)NC(=O)CNC(=O)[C@H](Cc2c[nH]c3ccccc23)NC(=O)[C@H](CC(=O)O)NC(=O)[C@H](CCC(N)=O)NC(=O)[C@H](Cc2cn(C)c3ccccc23)NC(=O)[C@H]([C@@H](C)CC)NC1=O

Positions of bridges follow the written chain, without caps; N, C: chain ends. Non-standard residues stand in square brackets, D forms with d. Trp(1-Me) = Cn1cc(C[C@H](N)C(=O)O)c2ccccc21; 1Nal = N[C@@H](Cc1cccc2ccccc12)C(=O)O; 2Nal = N[C@@H](Cc1ccc2ccccc2c1)C(=O)O; Sar = CNCC(=O)O Some results are limits rather than exact numbers.

T1 sequence (P01024 23-1663 limits assumed): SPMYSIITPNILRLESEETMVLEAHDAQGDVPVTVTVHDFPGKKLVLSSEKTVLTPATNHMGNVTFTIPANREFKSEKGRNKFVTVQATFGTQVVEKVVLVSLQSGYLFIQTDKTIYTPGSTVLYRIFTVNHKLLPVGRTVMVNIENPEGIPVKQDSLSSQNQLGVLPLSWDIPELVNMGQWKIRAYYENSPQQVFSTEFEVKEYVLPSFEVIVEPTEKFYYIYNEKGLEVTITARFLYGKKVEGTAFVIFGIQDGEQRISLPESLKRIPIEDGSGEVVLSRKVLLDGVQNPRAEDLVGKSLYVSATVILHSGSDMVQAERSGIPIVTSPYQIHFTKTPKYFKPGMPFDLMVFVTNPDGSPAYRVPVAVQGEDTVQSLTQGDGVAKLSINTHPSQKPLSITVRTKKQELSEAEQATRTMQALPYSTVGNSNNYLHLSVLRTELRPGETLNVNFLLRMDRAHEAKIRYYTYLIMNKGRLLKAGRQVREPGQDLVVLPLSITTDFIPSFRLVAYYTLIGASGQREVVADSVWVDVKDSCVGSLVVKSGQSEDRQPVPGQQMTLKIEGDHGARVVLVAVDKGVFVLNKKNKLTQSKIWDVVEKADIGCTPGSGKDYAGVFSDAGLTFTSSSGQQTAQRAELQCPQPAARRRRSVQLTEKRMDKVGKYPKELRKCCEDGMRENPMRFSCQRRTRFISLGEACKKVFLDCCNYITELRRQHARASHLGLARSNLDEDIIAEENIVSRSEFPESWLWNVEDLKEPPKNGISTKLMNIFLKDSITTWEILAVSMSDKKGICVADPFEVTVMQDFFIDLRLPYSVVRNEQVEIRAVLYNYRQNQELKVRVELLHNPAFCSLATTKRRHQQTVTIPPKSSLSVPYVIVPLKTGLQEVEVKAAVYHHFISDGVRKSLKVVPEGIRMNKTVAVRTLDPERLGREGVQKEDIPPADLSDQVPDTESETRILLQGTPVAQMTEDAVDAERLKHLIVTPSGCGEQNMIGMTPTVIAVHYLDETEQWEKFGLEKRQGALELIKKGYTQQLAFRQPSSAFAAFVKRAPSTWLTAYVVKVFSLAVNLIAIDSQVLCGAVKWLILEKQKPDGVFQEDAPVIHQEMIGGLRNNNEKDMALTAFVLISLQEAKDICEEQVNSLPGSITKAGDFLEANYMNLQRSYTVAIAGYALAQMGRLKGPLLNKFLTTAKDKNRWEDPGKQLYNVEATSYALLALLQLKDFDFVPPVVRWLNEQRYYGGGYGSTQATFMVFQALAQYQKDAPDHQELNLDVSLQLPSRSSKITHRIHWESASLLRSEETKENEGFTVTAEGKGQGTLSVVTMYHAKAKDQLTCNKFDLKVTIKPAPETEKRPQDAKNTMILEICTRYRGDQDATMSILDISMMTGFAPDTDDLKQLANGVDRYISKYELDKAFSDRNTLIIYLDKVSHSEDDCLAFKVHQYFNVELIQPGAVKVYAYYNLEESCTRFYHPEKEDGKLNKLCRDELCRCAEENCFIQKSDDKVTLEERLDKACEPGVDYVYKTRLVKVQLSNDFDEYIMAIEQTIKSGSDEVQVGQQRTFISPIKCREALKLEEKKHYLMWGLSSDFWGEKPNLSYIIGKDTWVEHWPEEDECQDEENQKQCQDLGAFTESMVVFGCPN

The first experiment has as its target T1, Human C3 (Complement tech cat #A113c) (human, UniProt P01024 23-1663).
T1 construct: Purified protein immobilised by amine coupling in the SPR assay; in the haemolysis assay it is the C3 of diluted human serum; Native C3 consists of a beta and an alpha chain cut from one precursor; also called C3 protein
Description: SPR (Biacore T200), human C3 immobilised, peptide injected, 1:1 fit. The essentials:
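Human C3 amine-coupled on CM5 chips to about 3000 RU. Multi-cycle runs on Biacore T200 at 25° C: peptides at 6-8 rising concentrations, 60-120 s at 30 µL/min in 10 mM Tris pH 7.4, 150 mM NaCl, 0.05% Tween20, dissociation up to 10 min; 3 M MgCl2 regeneration. Kd derived.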
Consider B1, for which the Kd came to 0.68 nM.

B2: the affinity, expressed as Kd, was 13 nM.

B3 registered a Kd of 0.3 nM.

In turn, B4 yielded a Kd of 4.3 nM.

As for B5, the affinity, expressed as Kd, was 9.7 nM.

With B6, the affinity, expressed as Kd, was 1.5 nM.

Take B7: binding was put at a Kd of 2.6 nM.

With B8, binding was characterised by a dissociation constant (Kd) of 5.4 nM.

B9: the Kd worked out at 3.2 nM.

Another experiment concerns the target T1, Human C3 (Complement tech cat #A113c). Description: cell-based or functional assay.
In the case of B1, the “inhibition of hemolysis IC50” value is under 100 nM.

In the case of B2, the “inhibition of hemolysis IC50” value is under 100 nM.

Turning to B3, the “inhibition of hemolysis IC50” value was under 100 nM.

For the molecule B4, the “inhibition of hemolysis IC50” value was under 100 nM.

As for B5, the “inhibition of hemolysis IC50” value was under 100 nM.

With B6, the “inhibition of hemolysis IC50” value was under 100 nM.

With B7, the “inhibition of hemolysis IC50” value is under 100 nM.

Consider B8, for which the “inhibition of hemolysis IC50” value is under 100 nM.

Take B9: the “inhibition of hemolysis IC50” value was under 100 nM.

Source of the values: patent publication US11965039B2, “Compstatin analogues and their medical uses” (priority 2018, dated 2024).
